Experimental data reported in the RNAGym collection of RNA variant scans (doi:10.1073/pnas.2313332121).
Fewer inactive variants are shown than the library holds.

B1: TPR 5TU (parent)
chain: GGAUCUUCUCGAUCUAACAAAAAAGACAAAUCUGCCACAAAGCUUGAGAGCAUCUUCGGAUGCAGAGGCGGCAGCCUUCGGUGGCGCGAUAGCGCCAACGUUCUCAACUAUGACACGCAAAACGCGUGCUCCGUUGAAUGGAGUUUAUCAUG

Variants of: B1
Experiment: polymerase ribozyme fitness, log enrichment relative to wild type (log ratio); higher = more active; in vitro selection for triplet polymerase activity
Method in brief: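 For each subunit of a heterodimeric triplet polymerase ribozyme, a mutant library was built by PCR and transcribed, then taken through a single in vitro selection round in triplicate. Selection involved annealing to a biotinylated primer, the partner subunit and triplets, incubation frozen at −7 °C, gel excision of extended constructs, capture on streptavidin beads and RT-PCR. Genotypes were retained after Illumina sequencing of inputs and outputs only with ≥10 input reads and ≥1 read in each output. Fitness is defined as the logarithm of a genotype's enrichment relative to wild-type enrichment, using inverse-variance-weighted averages across replicates, with the logarithm taken to base 2.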

Variant	polymerase ribozyme fitness (log ratio)
A19G C85U G94U G141U	0.14
C18U A29C U78G G92A A147C	≤ -4.2
C18G U56A A73U G83C	-3.86
A19G C38U G50A G86A C105A C116A A121U G141C	≤ -4.2
C18G C57U	-0.371
A19C U109G	-0.641
A19U A22C A40C C43G A66C C95A G141U G152A	-3.6
A19C U44A	-3.87
C18U U53A G74C A107U U135C G140C	≤ -4.2
A19G G42U G50U A52U C75U G88U G92C G143A	≤ -4.2
A19G G50A G83C G86U C96U	≤ -4.2
A19G A73U G94C	-2.39
C18U A37G U56A C87G C103U	≤ -4.2
C18U U55G C75U G92C	-1.73
A19C C93U	0.111
A19C C93G	-2.84
C18U C38G A40G U61A G81C C96A C116G A119U	≤ -4.2
C18G U44A C96G G133A A137U	-4.04
A19G C93A	-3.43
C18U C38G A40G U61A G81C C96A U146C	≤ -4.2
A19U A28U A52G C105G G126C G141C U148A C149U A150C	≤ -4.2
C18U C57G U61A C87U A89U C116U C118G A122G U139A	≤ -4.2
C18U A22U C43U C95U U101G G136A A138U	≤ -4.2
A19C C27G G70A C76U G94U C103U A120U C129A U148C	≤ -4.2

Variant	polymerase ribozyme fitness (log ratio)
C18G G59A C75U C93A A107C C118A	≤ -4.2
A19C U56C C96U G133C	-2.22
C18G U78A G83A C118U	≤ -4.2
A19G G84C A115U A121G	-3.97
A19C C27A A47C G58A G59A A91G C123A	≤ -4.2
C18G U31C G59C G81A C116G A138G	-4.15
A19C C43U U61G A64C U77G C85U A110U C116G	≤ -4.2
A19C C35G U53A C57A G92A U101C	-4.13
A19G U109G C118G U144A	-3.72
A19C G117C	0.678
C18U U31C U56G A138U G140A	-4
A19G A98U A115U A120U	-2.62
A19C A150U	2.88
A19C A150G	-0.495
A19G A29U C95U A122G	≤ -4.2
C18G U146C	-0.0606
A19G G83C	-1.11
A19C A20U U61C C76A U82C A91U U130G U146C	≤ -4.2
A19G A26C U55G G83U U151C	≤ -4.2
A19C G62C C72A C87A C131U U135A	≤ -4.2
A19C A28C A73G C87U	≤ -4.2
A19U A20U C35U G59C U77C C118U C123U G141A U151G	≤ -4.2
C18U U31G A41G U56A C63U C95U C96G U144C	-2.53
A19G U33C A49C C54U G81A C87U	≤ -4.2

Variant	polymerase ribozyme fitness (log ratio)
C18U A20U C103A G124A	-3.82
A19G A40U C57A U61A G100U G136U G141C	≤ -4.2
A19G A23U C57G G84U C93G G94C A122U A142C	≤ -4.2
A19C G34A C57U G86C C96U A98U	-3.16
A19U A47G U53G G67C C99U A142C A147C	≤ -4.2
A19C A24G G94U C95G	≤ -4.2
C18U C27U A28C G74U G100U U144G G152C	≤ -4.2
C18U A29U G68A C85U	≤ -4.2
A19C G48C C51A G86U G128U	≤ -4.2
A19C C54A U78G C96U G141C	≤ -4.2
C18G U45A A121U	-2.73
C18G G80C	≤ -4.2
A19U A23C C27A C85A	≤ -4.2
A19C U45A G59U U148A C149G	≤ -4.2
A19G A26C U144G	-2.17
C18U A47G A52U G68U C79A C93U C99A G141C A142G G143U	≤ -4.2
A19C C43U C51G G71A C87G C105U C108U G141C	≤ -4.2
C18G G84U	-1.93
C18U A37C G74C G81C	≤ -4.2
C18U U56A G83A U102A U144A	-3.72
A19U A22C G94C C96G C123U G128A U139C U146C	≤ -4.2
A19C U53A G92A	-3.8
C18U A60G U82A G141C	-0.334
A19G C35U U53G C54A G71A U145C	-2.47

Variant	polymerase ribozyme fitness (log ratio)
C18U C51U C96A G126C C132U	-2.04
A19G U90G	≤ -4.2
A19C A24G C32U C38U G59A C85A G133U U145C	≤ -4.2
C18U A30U G65U G84U C105U	≤ -4.2
A19C C38U C96U A142U	-0.812
C18U C85U C105U	0.286
C18G U31A A120G G128U A137G	-4.17
C18U G140C	-4.17
A19G U82G G124A G140C	-3.62
A19C U31C	1.56
A19C C38A C57A G80U C95U C116G	-1.83
A19G G42A A66C C85U A106U U148A	≤ -4.2
A19C C51U A52G G84U A89U G124U G141U	-1.23
A19G A30G C38U C85G A89U U130G	≤ -4.2
A19U A26U G46A C87A A91U G94A U127C G143C	≤ -4.2
C18G G71C C76A G88A G94A A113G A119U C129U	≤ -4.2
A19C A52G G88A A106G U139A	≤ -4.2
C18U G34U G70A C85U C87U A91C G117A	≤ -4.2
A19C C87U A97G A137U A142C	-4.12
C18U C93U C99U A150G	-2.85
A19C A22U G42U C75G C76A G94A A110U G133U G143U U146G	≤ -4.2
C18U U53A C95U C99G	-3.76
A19U A40G U101G	-3.45
C18G G42A U45A G58U A122C A142G	≤ -4.2

Variant	polymerase ribozyme fitness (log ratio)
A19U A40C G81C C96G	-1.25
A19G C54G	-1.84
C18U C51U U53A G83A	-3.04
C18U G83C	-1.3
C18U G83A	-0.637
A19U A40C A91U C95G	≤ -4.2
A19C A29U A39U A60U C76U C95U U144A	≤ -4.2
A19U A47C C93U	-1.1
A19U A26C A30U C35U A41U G84A U135A	≤ -4.2
A19C C57A A119G G128A	-4.12
A19G C72G A89G	≤ -4.2
C18U U53G C54A A91G A110G C114G	≤ -4.2
C18U A21C G141A	0.0565
A19G U33C A41C A91U C93A A97C	≤ -4.2
A19C C51U A142C	-0.768
A19U A47C U55G C87U G92U U101C	-2.81
A19C A21U A40C A60C C96G A110G G136U	≤ -4.2
A19U A20C A26U C85U C118A C125U U134G G143A	≤ -4.2
A19C U56A	0.406
A19U A37C U135G	-3.82
A19U A21U G94A	-1.09
C18G U56G C85U	-0.856
A19G C85A	-2.09
A19G A28U A40C A60C G71U C75A G86U	≤ -4.2

Variant	polymerase ribozyme fitness (log ratio)
A19C G58C C87A C95A A98G	≤ -4.2
C18G G94A	-1.09
A19G C57U G67U G94A C105A	≤ -4.2
A19U A23G U90G	-3.99
C18U C51U A89U C96A	-2.24
A19U A22C U55G A64C A73G A91C U144A	≤ -4.2
C18G C85G	-2.28
C18G C85A	-1.49
A19U A24C C35U C57U A66C G86U	-4.08
A19C C79U A98U	-1.81
A19G A41U A66C C93U C99U A115U G140A G141C	≤ -4.2
A19G C85G G117A A137G	-2.73
A19C A22U C35A A106G	-3.28
A19C C57U G86A	-0.316
A19G C54G C96G C149U	-3.72
A19G G59U C76A C96U	-1.25
A19U A24U G46U A49C U82G C99A	≤ -4.2
A19G G94A	-1.06
C18U G58C G86A U104C	-1.79
A19C C85U	-0.536
C18U U33A A39U A52C C72U G94A C95U C132U	≤ -4.2
C18U C54A A64G G83C A119U A147C	≤ -4.2
A19C C87U	-0.722
A19C A23G A24G U31A C35A A40U G48A C79A G140A	≤ -4.2

Variant	polymerase ribozyme fitness (log ratio)
A19C C129G U148G	≤ -4.2
A19C A37U G70U U144C	≤ -4.2
C18U U55A C57G A66U U82G G94C A113U	≤ -4.2
A19U A30C C95G	≤ -4.2
A19C C57U G94U	-0.554
A19C A22G U31G C38U A107U G117A	-4.16
A19G G50A C69U G84U A98U A122G	≤ -4.2
A19G G59U	-0.93
A19G C32A U56G C57U U82A	≤ -4.2
A19C G86C C99U	-2.28
C18U G94A	-1.37
A19G U56A G86A G141U	-1.64
A19C A21C C35U G59U C75U	-1.16
C18U A40C A52G G86U U90C U135G	≤ -4.2
A19G G83A C85A C96U A97C A119G	≤ -4.2
A19U A23C A29G G83C A97U C103G U139C	≤ -4.2
A19G C35A G42C G68C G92A	≤ -4.2
A19U A20U C85U	-2.59
C18G C79G	-3.9
C18U A21C U55A	-0.649
A19G G50A	-2.14
C18U C93U G133U	≤ -4.2
C18U A39C C57U G83A C95U U148C C149A	≤ -4.2
